We go through three molecules from paper PMC8213806 (Nature Communications, 2021).

The target of this test is T1, TcdB1 holotoxin (VPI10463 strain), recombinant full-length, from Bacillus megaterium (Clostridioides difficile (VPI10463 …, UniProt P18177 1-2366)).
T1 construct: source: Bacillus megaterium, purified as described previously
The test is described as follows: BLI. The following applies: both partners purified.

B1: CSPG4^mini (human CSPG4 residues 30–764: two laminin G motifs and first two CSPG repeats) (domain or fragment)
chain: ASFFGENHLEVPVATALTDIDLQLQFSTSQPEALLLLAAGPADHLLLQLYSGRLQVRLVLGQEELRLQTPAETLLSDSIPHTVVLTVVEGWATLSVDGFLNASSAVPGAPLEVPYGLFVGGTGTLGLPYLRGTSRPLRGCLHAATLNGRSLLRPLTPDVHEGCAEEFSASDDVALGFSGPHSLAAFPAWGTQDEGTLEFTLTTQSRQAPLAFQAGGRRGDFIYVDIFEGHLRAVVEKGQGTVLLHNSVPVADGQPHEVSVHINAHRLEISVDQYPTHTSNRGVLSYLEPRGSLLLGGLDAEASRHLQEHRLGLTPEATNASLLGCMEDLSVNGQRRGLREALLTRNMAAGCRLEEEEYEDDAYGHYEAFSTLAPEAWPAMELPEPCVPEPGLPPVFANFTQLLTISPLVVAEGGTAWLEWRHVQPTLDLMEAELRKSQVLFSVTRGARHGELELDIPGAQARKMFTLLDVVNRKARFIHDGSEDTSDQLVLEVSVTARVPMPSCLRRGQTYLLPIQVNPVNDPPHIIFPHGSLMVILEHTQKPLGPEVFQAYDPDSACEGLTFQVLGTSSGLPVERRDQPGEPATEFSCRELEAGSLVYVHRGGPAQDLTFRVSDGLQASPPATLKVVAIRPAIQIHRSTGLRLAQGSAMPILPANLSVETNAVGQDVSVLFRVTGALQFGELQKQGAGGVEGAEWWATQAFHQRDVEQGRVRYLSTDPQHHAYDTVENLALEVQ
notes: source: FreeStyle HEK 293 cells, secreted, purified (Ni-NTA, Superdex-200)
On to B1, for which the binding result was “binds”.

B2: Repeat1-Fc (CSPG4 Repeat1, residues 410–551, fused to the N-terminus of human IgG1 Fc) (Fc fusion)
chain: ELPEPCVPEPGLPPVFANFTQLLTISPLVVAEGGTAWLEWRHVQPTLDLMEAELRKSQVLFSVTRGARHGELELDIPGAQARKMFTLLDVVNRKARFIHDGSEDTSDQLVLEVSVTARVPMPSCLRRGQTYLLPIQVNPVND
notes: also called CSPG4 decoy; source: FreeStyle HEK 293 cells, secreted, purified (Ni-NTA); not shown: Fc (human IgG1), C-terminal, kept
B2: the equilibrium dissociation constant (Kd) was about 15.2 nM, the koff is about 0.000108 s⁻¹ and the kon is about 7060 M⁻¹ s⁻¹.

B3: His-tagged CSPG4 Repeat1 (residues 410–551), biotinylated (domain or fragment)
chain: ELPEPCVPEPGLPPVFANFTQLLTISPLVVAEGGTAWLEWRHVQPTLDLMEAELRKSQVLFSVTRGARHGELELDIPGAQARKMFTLLDVVNRKARFIHDGSEDTSDQLVLEVSVTARVPMPSCLRRGQTYLLPIQVNPVND
modifications: biotinylated using EZ-Link NHS-PEG4-Biotin at pH 6.5
notes: also called His-tagged Repeat1; source: FreeStyle HEK 293 cells, secreted, purified (Ni-NTA); not shown: 8xHis, N-terminal, kept
Consider B3, for which the binding result is “binds”.
